Measurements from patent US20120184485A1.

Legend:
[1] = target: scavenger receptor CD36; assay: flow cytometry on CD36-transfected CHO cells, rAv17 at 5 µg/ml; baseline 20%
[2] = target: scavenger receptor CD36; assay: flow cytometry on CD36-transfected CHO cells, rAv17 at 2.5 µg/ml; baseline 20%

Work on “recombinant Acanthocheilonema viteae cystatin (rAv17)” yielded a fluorescence positive cells [1] of 89% and a fluorescence positive cells [2] of 71%.
